Data as given in article PMC7046344.
Each block holds one molecule with its values, some of them ahead of it.

What was measured:
[1] = target: Spn-F-FLAG (UniProt Q9V9Y9); assay: co-immunoprecipitation (IP anti-FLAG, IB myc, band ratio by ImageJ); conditions: lysates of S2 cells co-expressing SpnF-FLAG and myc-Rab11; parent: 1
[2] = target: T1, Spn-F-FLAG, Q9V9Y9; assay: as above; conditions: chain shown with the change; lysates of S2 cells co-expressing SpnF-FLAG and myc-Rab11; parent: 1
T1 chain: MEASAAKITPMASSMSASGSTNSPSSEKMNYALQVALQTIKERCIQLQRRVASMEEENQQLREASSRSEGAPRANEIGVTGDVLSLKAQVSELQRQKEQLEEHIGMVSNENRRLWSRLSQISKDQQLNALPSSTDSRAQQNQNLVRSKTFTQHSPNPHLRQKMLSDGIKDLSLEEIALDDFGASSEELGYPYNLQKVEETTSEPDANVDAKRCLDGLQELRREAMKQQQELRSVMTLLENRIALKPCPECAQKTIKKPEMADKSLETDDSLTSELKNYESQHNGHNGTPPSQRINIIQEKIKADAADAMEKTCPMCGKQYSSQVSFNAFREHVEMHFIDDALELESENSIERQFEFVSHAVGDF

other: myc/FLAG ratio [1]: 0.14
Molecule: myc-Rab11 (from UniProt O18335) CA

other: myc/FLAG ratio [2]: 1.07
B1: myc-Rab11, O18335 S25N (protein)
chain: MGAREDEYDYLFKVVLIGDSGVGKNNLLSRFTRNEFNLESKSTIGVEFATRSIEVDGKTIKAQIWDTAGQERYRAITSAYYRGAVGALLVYDIAKHLTYENVERWLRELRDHADQNIVIMLVGNKSDLRHLRSVPTDEAKLFAERNGLSFIETSALDSTNVETAFQNILTEIYRIVSQKQIRDPPEGDVIRPSNVEPIDVKPTVTADVRKQCCQ
